The record followed here is US20260234247A1 (published 2026).

Changes are numbered by the printed parent chain.

B1: LK-RB1-12 (antibody, human IgG4 S228P, kappa, V domains shown)
VH: QVQLQQSGTELVRPGSSVMISCKASGYAFSTYWMDWVKQRPGQGLEWIGQIYPGDGATNYNGKFKGKATLTADKSSITAYMHLSSLTSEDSAVYFCLRSRDYDGWFFDVWGAGTTVTVSS
VL: DIVMTQSHKFMSTSIGDRVSITCKASQDVSSAVAWYQQKPGQSPKLLIYWASTRHTGVPDRFTGSGSGTDYTLTFSSVQAEDLALYYCQQHYSTPWTFGGGTKLEIKR
B2: LK-RB1-33 (antibody, human IgG4 S228P, kappa, V domains shown)
VH: QIQLVQSGPELKKPGDTVKISCKASGYTFTSYGMNWVKQAPGEGLKWMGWINTYSGVPTYGDDFKGRFAFSLETSASTAYLQINNLENEDTATYFCARRGRDSVVGHFDVWGTGTTVTVSS
VL: B1 VL with I15V, S30N, S31T, Y71F, F75I, S93T, T94I, W96F, G100S, K103R
B3: LK-RB1-16 (antibody, human IgG4 S228P, kappa, V domains shown)
VH: QVQLKESGPGLVAPSQSLSITCTVSGFSLISNAISWVRQPPGKGLEWLGVIWGDGNTIYHSALRSRLTISKDNSKSQVFLKLNSLQIDDTATYYCAKANWDGYYFDYWGQGTTLTVSS
VL: DIQMNQSPSSLSASLGDTITITCHASQSVDFWLNWYQQKPGNIPKLLISKASNLHTGVPSRFSGSGSGTTFTLTISSLQPEDIATYYCQQGQSYPLTFGSGTKLEIKR
B4: LK-RB1-31 (antibody, human IgG4 S228P, kappa, V domains shown)
VH: QVQLKESGPGLVAPSQSLSITCTVSGFSLTSYGVSWVRQPPGKGLEWLGIIWGDGSTNYHSALKSRLSISKDNSKSQVFLKLNSLQTEDTATYYCAKPNWDYYAMDYWGQGTSVTVSS
VL: DIQMTQTTSSLSASLGDRVTISCRASQDISNYLNWYLQKPDGTVKLLIYYTSRLHSGVPSRFSGSGSGTDYSLTISNLEQEDIATYFCQQGITLPCTFGGGTKLEIKR
B5: LK-RB1-47 (antibody, human IgG4 S228P, kappa, V domains shown)
VH: QIQLVQSGPELKKPGETVKISCKASGYTFTTYGMSWVKQAPGKGLKWMGWINTYSGVPTYTDDFKGRFAFSVETSASTAYLQINNLKNEDTATYFCARRERDFYGNIFFPYWGQGSLVTVSA
VL: B4 VL with L37Q, L54I, Y71F, E79D, I92H, C96W, L104V
B6: hz73D1.v1 (antibody, human IgG4 S228P, kappa, V domains shown)
VH: QVQLVQSGAEVKKPGASVKVSCKASGYTFTDYYINWVRQAPGQGLEWMGNVNPNDGGTTYNQKFKGRVTMTTDTSTSTAYMELRSLRSDDTAVYYCARREIYFYGTIYYYAMDYWGQGTLVTVSS
VL: DIQLTQSPSFLSASVGDRVTITCRASESVDYYGNSFMYWYQQKPGKAPKLLIYFASNLESGVPSRFSGSGSGTEFTLTISSLQPEDFATYYCQQNNEDPWTFGGGTKVEIKR
B7: LK-RB1-58 (antibody, human IgG4 S228P, kappa, V domains shown)
VH: QVQLKQSGPGLVQPSQSLSITCTVSGFSLTTYGVHWVRQSPGKGLEWLGVIWRGGSTDYNAAFMSRLSITKDNSKSQVFFRMNSLQADDTARYYCAKNSLYYGSSWYFDVWGTGTTVTVSS
VL: QIVLSQSPAILSASPGEKVTMTCRASSSVSFMHWYQQKPGSSPKPWIYATSNLASGVPARFSGSGSGTSYSLTISRVEAEDAATYYCQQWSSNPPTFGGGTKLEIKR
notes: Anti-LILRB1 antibody
B8: LK-RB2-3 (antibody, human IgG4 S228P, kappa, V domains shown)
VH: QLQLQQSDAELVKPGASVKISCKVSGYSFTDHTIHWMKQRPEQGLEWIGYIYPRDGSTKENEKFTGKATLTADKSSSTAYMQLTSLTSEDSAVYFCTGSGFDYWGQGTSLTVSS
VL: DIKMTQSPSSMYASLGERVTITCKASQDIKSYLSWFQQKPGKSPKTLIYRANRLVDGVPSRFSGSGSGQDYSLTINSLEYEDMEIYYCLQYDEFPYTFGGGTKLEIKR
notes: Anti-LILRB2 antibody from mouse hybridoma
B9: LK-RB2-15 (antibody, human IgG4 S228P, kappa, V domains shown)
VH: QIQLVQSGPELKKPGETVKISCKASGYTFTTYGMSWVKQAPGKGLKWMGWINVYSGVPTYADDFKGRFAFSLEISASTAYLQINNLKDEDTATYFCARRKDYSGHCFDYWGQGTTLTVSS
VL: DIVLTQSPASLAVSLGQRATFSCRASESVDTYGISFMHWYQQKPGQPPKLLIYRASNLESGIPARFSGSGSRTDFTLTINPVETDDVATYYCQQSKKEPYTFGGGTKLEIKR
notes: as for B8
B10: LK-RB2-14 (antibody, human IgG4 S228P, kappa, V domains shown)
VH: QVQLKQSGPGLVQPSQSLSITCTVSGFSLTSYGVHWVRQSPGKGLEWLGVIWRGGSTDYNAAFMSRLSITKDNSKSQVFFKMNSLQADDTAIYYCAKNEGDSTVVAWYFDVWGTGTTVTVSS
VL: DIQMTQTTSSLSASLGDRVTISCSASQGISNYLNWFQQKPDGTVKLLIYYTSSLHSGVPSRFSGSGSGTDYSLTISNLEPEDIATYYCQQYSKLPLTFGAGTKLELKR
notes: as for B8

T1 sequence (Q8NHL6 24-458 limits assumed): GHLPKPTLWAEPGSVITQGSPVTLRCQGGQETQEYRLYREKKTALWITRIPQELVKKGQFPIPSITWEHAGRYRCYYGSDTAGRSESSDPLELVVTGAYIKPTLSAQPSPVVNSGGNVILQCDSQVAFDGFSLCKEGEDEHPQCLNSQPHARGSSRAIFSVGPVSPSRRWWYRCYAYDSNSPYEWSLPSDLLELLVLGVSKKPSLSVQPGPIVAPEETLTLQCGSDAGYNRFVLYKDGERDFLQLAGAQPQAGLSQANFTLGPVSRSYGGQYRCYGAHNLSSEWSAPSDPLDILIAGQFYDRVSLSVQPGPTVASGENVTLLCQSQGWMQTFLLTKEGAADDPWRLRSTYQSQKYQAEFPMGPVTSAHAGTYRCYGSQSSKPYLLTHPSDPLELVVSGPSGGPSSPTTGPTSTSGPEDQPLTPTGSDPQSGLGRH
T3 sequence (Q8NHL6 24-458 limits assumed): as above

One assay has as its target T1, human LILRB1 (human, UniProt Q8NHL6 24-458, limits assumed).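 Note: antibody dissociation rate constants against cynomolgus LILRB2 plus human LILRB1, LILRB2, LILRA1 and LILRA2, measured on an Octet instrument to rank binding.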
T1 construct: also called hLILRB1
As to the kind of experiment: Octet off-rate ranking. (In BLI a coated tip is dipped into the sample, and binding shifts an interference pattern.)
Source text: Binding affinity of anti-LILRB1 and anti-LILRB2 antibodies against human LILRB1, LILRB2, LILRA1, LILRA2 and cynomolgus LILRB2 was ranked by measuring dissociation rate constant (Kdis) using the Octet system.
For the molecule B1, the koff was 0.00126 s⁻¹.

The molecule B2 yielded a koff of 0.000155 s⁻¹.

Turning to B3, the koff was 5.92e-05 s⁻¹.

B4 had a dissociation rate constant (koff) of 6.77e-05 s⁻¹.

As for B5, the koff came to 0.000828 s⁻¹.

The target in a further assay is T2, Rhesus LILRB1 (F7H3G7) on CHOK1 cells (rhesus macaque).
T2 construct: whole, on cells; also called CHOK1-Rhesus LILRB1 (F7H3G7)
As to the kind of experiment: flow cytometry on CHOK1-rhesus LILRB1 (F7H3G7) cells. (Flow cytometry measures light scatter and fluorescence of single cells or particles in a stream.)
B6: the EC50 is 0.00125 µM.

In turn, B7 registered an EC50 of 17.9 µM.

The next assay concerns the target T3, Biotinylated LILRB1 (UniProt Q8NHL6 24-458, limits assumed, biotinylated (sites not given)). As to the kind of experiment: epitope binning ELISA, coated 1 ug/ml; competitor 15G8 at 20 ug/ml.
In the case of B1, the Inhibition % was -9.78%.

On to B2, for which the Inhibition % is 72.2%.

B3: the Inhibition % was determined as 0.37%.

As for B4, the Inhibition % was -1.73%.

In the case of B5, the Inhibition % worked out at 5.8%.

The next assay addresses T3, Biotinylated LILRB1. As to the kind of experiment: epitope binning ELISA, coated 1 ug/ml; competitor LK-RB1-9 at 20 ug/ml. Background: In an ELISA, binding on a coated surface is turned into a signal by an enzyme label.
Procedure: (§1) Binding epitope of a subset of anti-LILRB1 and anti-LILRB2 antibodies was analyzed by epitope binning ELISA. Briefly, a panel of testing antibodies were coated onto ELISA plate. 50 ul/well Biotinylated LILRB1 or LILRB2 and 50 ul/well of competing antibodies were added to the coated plate and incubated at 37° C. for 1 hour. After Streptavidin-HRP (1:5000) incubation and TMB development, the plates were read at 450 nm using Molecular device spectra max plus384.
Consider B1, for which the Inhibition % was 84.5%.

As to B2, the Inhibition % was determined as 94.8%.

As for B3, the Inhibition % worked out at 0.98%.

B4: the Inhibition % was 10.5%.

For B5, the Inhibition % turned out to be 31.8%.

The target of another assay is T3, Biotinylated LILRB1. As to the kind of experiment: epitope binning ELISA, coated 1 ug/ml; competitor LK-RB1-12 at 20 ug/ml.
Procedure: as §1
As to B1, the Inhibition % stood at 90.3%.

For the molecule B2, the Inhibition % worked out at 68.8%.

On to B3, for which the Inhibition % worked out at 12.5%.

As to B4, the Inhibition % is 87.4%.

Turning to B5, the Inhibition % is 82.1%.

For the next assay, the target named is T3, Biotinylated LILRB1. As to the kind of experiment: epitope binning ELISA, coated 1 ug/ml; competitor LK-RB1-16 at 20 ug/ml.
Procedure: as §1
For the molecule B1, the Inhibition % was found to be 88%.

For the molecule B2, the Inhibition % was 3.49%.

Consider B3, for which the Inhibition % amounted to 42.9%.

For the molecule B4, the Inhibition % turned out to be 75.7%.

With B5, the Inhibition % was found to be 1.24%.

The next assay has as its target T3, Biotinylated LILRB1. As to the kind of experiment: epitope binning ELISA, coated 1 ug/ml; competitor LK-RB1-31 at 20 ug/ml.
Procedure: as §1
Consider B1, for which the Inhibition % was 83%.

Turning to B2, the Inhibition % stood at 4.35%.

In the case of B3, the Inhibition % was 3.39%.

As for B4, the Inhibition % worked out at 64.4%.

For the molecule B5, the Inhibition % stood at 0.59%.

Another assay deals with T3, Biotinylated LILRB1. As to the kind of experiment: epitope binning ELISA, coated 1 ug/ml; competitor LK-RB1-33 at 20 ug/ml.
Procedure: as §1
As to B1, the Inhibition % was 75.3%.

As for B2, the Inhibition % amounted to 96%.

In the case of B3, the Inhibition % was -0.04%.

Regarding B4, the Inhibition % amounted to 1.14%.

For B5, the Inhibition % is 21.7%.

A further assay has as its target T3, Biotinylated LILRB1. As to the kind of experiment: epitope binning ELISA, coated 1 ug/ml; competitor LK-RB1-47 at 20 ug/ml.
Procedure: as §1
In the case of B1, the Inhibition % turned out to be 83.2%.

Take B2: the Inhibition % was determined as 96.5%.

Turning to B3, the Inhibition % stood at 2.23%.

Consider B4, for which the Inhibition % is 5.86%.

For the molecule B5, the Inhibition % came out at 89.8%.

In another assay the target is T3, Biotinylated LILRB1. As to the kind of experiment: epitope binning ELISA, coated 1 ug/ml; competitor hz73D1.v1 at 20 ug/ml.
Procedure: as §1
For B1, the Inhibition % amounted to 77.3%.

As for B2, the Inhibition % turned out to be 88.7%.

As for B3, the Inhibition % is 1.48%.

B4: the Inhibition % worked out at 54.1%.

Consider B5, for which the Inhibition % amounted to 74.8%.

In the next assay the target is T4, Biotinylated LILRB2 (UniProt Q8N423 22-460, limits assumed, biotinylated (sites not given)).
T4 construct: also called biotinylated-LILRB2 protein
T4 sequence (Q8N423 22-460 limits assumed): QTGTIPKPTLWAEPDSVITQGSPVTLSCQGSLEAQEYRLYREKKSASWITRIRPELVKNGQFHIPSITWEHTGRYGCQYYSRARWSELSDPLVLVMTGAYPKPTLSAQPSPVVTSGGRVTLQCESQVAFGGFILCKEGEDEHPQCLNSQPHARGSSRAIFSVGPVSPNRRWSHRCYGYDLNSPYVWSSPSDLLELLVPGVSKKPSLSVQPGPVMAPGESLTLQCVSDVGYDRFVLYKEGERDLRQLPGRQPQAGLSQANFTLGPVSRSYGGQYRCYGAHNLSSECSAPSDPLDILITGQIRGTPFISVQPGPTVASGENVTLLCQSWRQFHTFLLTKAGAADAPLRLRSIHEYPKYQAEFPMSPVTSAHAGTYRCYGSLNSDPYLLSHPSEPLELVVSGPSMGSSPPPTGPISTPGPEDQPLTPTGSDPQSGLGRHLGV
As to the kind of experiment: epitope binning ELISA; coated antibody 1 ug/ml, biotinylated LILRB2; competitor J19.h1 at 20 ug/ml.
As for B8, the Inhibition % came to 9.71%.

For the molecule B9, the Inhibition % was 8%.

Turning to B10, the Inhibition % is 77.4%.

The target in a further assay is T4, Biotinylated LILRB2. As to the kind of experiment: epitope binning ELISA; coated antibody 1 ug/ml, biotinylated LILRB2; competitor LK-RB2-2 at 20 ug/ml.
Procedure: as §1
On to B8, for which the Inhibition % came to 96.9%.

As for B9, the Inhibition % was determined as 47.1%.

For B10, the Inhibition % turned out to be 97.7%.

For a further assay, the target named is T4, Biotinylated LILRB2. As to the kind of experiment: epitope binning ELISA; coated antibody 1 ug/ml, biotinylated LILRB2; competitor LK-RB2-3 at 20 ug/ml.
Procedure: as §1
Consider B8, for which the Inhibition % stood at 96.7%.

With B9, the Inhibition % worked out at 22.1%.

In the case of B10, the Inhibition % is 29.8%.

The next assay concerns the target T4, Biotinylated LILRB2. As to the kind of experiment: epitope binning ELISA; coated antibody 1 ug/ml, biotinylated LILRB2; competitor LK-RB2-14 at 20 ug/ml.
Procedure: as §1
On to B8, for which the Inhibition % is 24.9%.

Consider B9, for which the Inhibition % amounted to 85.4%.

Take B10: the Inhibition % turned out to be 90.6%.

Another assay has as its target T4, Biotinylated LILRB2. As to the kind of experiment: epitope binning ELISA; coated antibody 1 ug/ml, biotinylated LILRB2; competitor LK-RB2-15 at 20 ug/ml.
Procedure: as §1
Take B8: the Inhibition % worked out at 5%.

Turning to B9, the Inhibition % came out at 94.3%.

As for B10, the Inhibition % came out at 91.1%.

The next assay addresses T4, Biotinylated LILRB2. As to the kind of experiment: epitope binning ELISA; coated antibody 1 ug/ml, biotinylated LILRB2; competitor LK-RB2-24 at 20 ug/ml.
Procedure: as §1
With B8, the Inhibition % turned out to be 32.2%.

On to B9, for which the Inhibition % amounted to 96.8%.

Regarding B10, the Inhibition % worked out at 94.3%.

The next assay addresses T4, Biotinylated LILRB2. As to the kind of experiment: epitope binning ELISA; coated antibody 1 ug/ml, biotinylated LILRB2; competitor hz73D1.v1 at 20 ug/ml.
Procedure: as §1
For B8, the Inhibition % was determined as 33.7%.

Regarding B9, the Inhibition % came out at 15.1%.

For B10, the Inhibition % was determined as 92.7%.

Broadly, the koff is the rate constant with which the complex falls apart. A high value points to fast dissociation. A word on the EC50: it is the concentration at which the effect is half-maximal.
